A short description of series [1]: ATPase assay (malachite green end-point). The following applies: 1 mM ATP, 37°C, 5 min, pH 7.4, mean of all runs. The class given is biochemical, S. cerevisiae. The protocol:
The rate of ATP hydrolysis was determined using an end-point method modified from Merrill and Hanson ([Merrill and Hanson, 2010]). Vps4 at the indicated subunit concentration was incubated with 1 mM ATP at 37°C in 20 mM HEPES/NaOH pH 7.4, 100 mM NaCl, 10 mM MgCl2, 1 mM DTT in a total volume of 10 µl. The hydrolysis reaction was stopped after 5 min by the addition of 100 µl of malachite green color reagent (14 mM ammonium molybdate, 1.3 M HCl, 1.5 mM malachite green) and 50 µl of 21% (w/v) citric acid. Absorbance at 650 nm was read using a Biotek Neo Synergy microplate reader and the amount of inorganic phosphate released by the reaction was determined using a sodium phosphate standard curve. Means and standard deviations reported in Figure 1D are from at least three independent experiments using different protein preparations with three or more technical replicates each.

Series [2] addresses T1, Vps4^101-437 (Saccharomyces cerevisiae, UniProt P52917, L151D).
T1 construct: 6xHis (TEV-cleavable) (N, cleaved yes); made in house; host or cells: E. coli BL21(DE3)RIL
Format: binding, S. cerevisiae. To be noted: global fit of replicate titrations over [Vps4 monomer], uM, m1 = 1; L151D mutant; Std. Error 0.218; 95% CI (profile likelihood) 4.01 to 4.887; read-out: Kd (fit to normalized anisotropy data, best-fit value). The protocol:
Fluorescence polarization assay for ESCRT-III peptide binding
When equilibrium was reached, parallel and perpendicular fluorescence intensities were measured on a Biotek Synergy Neo HTS microplate reader using an excitation wavelength of 485 nm and an emission wavelength of 528 nm.

Where a chain is given by its changes, count along the chain named.

T1 sequence (P52917 101-437 L151D): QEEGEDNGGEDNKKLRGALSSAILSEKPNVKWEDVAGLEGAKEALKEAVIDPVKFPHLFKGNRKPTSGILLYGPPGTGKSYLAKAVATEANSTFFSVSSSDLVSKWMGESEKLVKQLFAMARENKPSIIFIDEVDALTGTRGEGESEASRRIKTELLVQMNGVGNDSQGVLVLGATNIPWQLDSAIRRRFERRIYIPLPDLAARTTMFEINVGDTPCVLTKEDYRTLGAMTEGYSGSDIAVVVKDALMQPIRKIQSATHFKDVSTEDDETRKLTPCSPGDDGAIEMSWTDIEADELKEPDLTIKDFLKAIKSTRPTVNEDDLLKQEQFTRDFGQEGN

B1: Vps4 full-length: yeast AAA ATPase Vps4, full-length (pET151-Vps4) (protein)
chain 1: MSTGDFLTKGIELVQKAIDLDTATQYEEAYTAYYNGLDYLMLALKYEKNPKSKDLIRAKFTEYLNRAEQLKKHLESEEANAAKKSPSAGSGSNGGNKKISQEEGEDNGGEDNKKLRGALSSAILSEKPNVKWEDVAGLEGAKEALKEAVILPVKFPHLFKGNRKPTSGILLYGPPGTGKSYLAKAVATEANSTFFSVSSSDLVSKWMGESEKLVKQLFAMARENKPSIIFIDEVDALTGTRGEGESEASRRIKTELLVQMNGVGNDSQGVLVLGATNIPWQLDSAIRRRFERRIYIPLPDLAARTTMFEINVGDTPCVLTKEDYRTLGAMTEGYSGSDIAVVVKDALMQPIRKIQSATHFKDVSTEDDETRKLTPCSPGDDGAIEMSWTDIEADELKEPDLTIKDFLKAIKSTRPTVNEDDLLKQEQFTRDFGQEGN
chain 2: MASNAARVVATAKDFDKVGLGIIGYYLQLYAVELILSEEDRSQEMTALATELLDTIEAFKKEIGGESEAEDSDKSLHVMNTLIHDQEKAKIYMLNFTMSLYNEKLKQLKDGPWDVMLKRSLWCCIDLFSCILHLWKENISETSTNSLQKRIKYCKIYLSKLAKGEIGSSDEKTLDYADFADDSEEIKDEDVDHQTSDLENNNNDKVEGLAPKDQTTSYEPVDEVPEFIDDADSVNEEEQTVDKNEDAITKDEQQVVKKEVDLTRPSAPSEPAAAEHKSYTKDELTKIMDRASKIEQIQKLAKYAISALNYEDLPTAKDELTKALDLLNSI
modifications: left off: 6xHis, N-terminal, cleaved | 6xHis, N-terminal, cleaved
As to B1, the entries for the “ATPase activity, average” value in series [1] (0.05 μM Vps4 subunits) and in series [1] (1 μM Vps4 subunits) were 19.8582 ATP/min/Vps4 hexamer and 701.731 ATP/min/Vps4 hexamer, respectively.

B2: Vps4^101-437: yeast Vps4 construct (residues 101–437) spanning the AAA ATPase cassette (protein, UniProt P52917 101-437, looked up, fragment)
chain: QEEGEDNGGEDNKKLRGALSSAILSEKPNVKWEDVAGLEGAKEALKEAVILPVKFPHLFKGNRKPTSGILLYGPPGTGKSYLAKAVATEANSTFFSVSSSDLVSKWMGESEKLVKQLFAMARENKPSIIFIDEVDALTGTRGEGESEASRRIKTELLVQMNGVGNDSQGVLVLGATNIPWQLDSAIRRRFERRIYIPLPDLAARTTMFEINVGDTPCVLTKEDYRTLGAMTEGYSGSDIAVVVKDALMQPIRKIQSATHFKDVSTEDDETRKLTPCSPGDDGAIEMSWTDIEADELKEPDLTIKDFLKAIKSTRPTVNEDDLLKQEQFTRDFGQEGN
For the molecule B2, the entries for the “ATPase activity, average” value in series [1] (0.05 μM Vps4 subunits) and in series [1] (1 μM Vps4 subunits) were -26.1936 ATP/min/Vps4 hexamer and 418.838 ATP/min/Vps4 hexamer, respectively.

B3: Vps4(101-437) L151D (protein)
chain: B2 chain with L51D
modifications: left off: 6xHis, N-terminal, cleaved
In the case of B3, in series [2], the Kd came out at 4.43 µM.

B4: Vps4^81-437: Vps4 construct residues 81-437 (pET151-Vps4(81-437)) (protein, UniProt P52917 81-437, looked up, fragment)
chain: AAKKSPSAGSGSNGGNKKISQEEGEDNGGEDNKKLRGALSSAILSEKPNVKWEDVAGLEGAKEALKEAVILPVKFPHLFKGNRKPTSGILLYGPPGTGKSYLAKAVATEANSTFFSVSSSDLVSKWMGESEKLVKQLFAMARENKPSIIFIDEVDALTGTRGEGESEASRRIKTELLVQMNGVGNDSQGVLVLGATNIPWQLDSAIRRRFERRIYIPLPDLAARTTMFEINVGDTPCVLTKEDYRTLGAMTEGYSGSDIAVVVKDALMQPIRKIQSATHFKDVSTEDDETRKLTPCSPGDDGAIEMSWTDIEADELKEPDLTIKDFLKAIKSTRPTVNEDDLLKQEQFTRDFGQEGN
Take B4: the “ATPase activity, average” value in series [1] (0.05 μM Vps4 subunits) is -6.194 ATP/min/Vps4 hexamer; in series [1] (1 μM Vps4 subunits) it was 456.338 ATP/min/Vps4 hexamer.

The record behind these values is publication PMC5413351, “Structural basis of protein translocation by the Vps4-Vta1 AAA ATPase” (eLife, 2017).
